Values of other authors, collected in paper PMC4753134.

Legend:
EGFR (Homo sapiens) = EGFR (Homo sapiens) (UniProt P00533)
Met (Homo sapiens) = Met (Homo sapiens) (UniProt P08581)
Sequence of UniProt P08581 (P08581 25-932): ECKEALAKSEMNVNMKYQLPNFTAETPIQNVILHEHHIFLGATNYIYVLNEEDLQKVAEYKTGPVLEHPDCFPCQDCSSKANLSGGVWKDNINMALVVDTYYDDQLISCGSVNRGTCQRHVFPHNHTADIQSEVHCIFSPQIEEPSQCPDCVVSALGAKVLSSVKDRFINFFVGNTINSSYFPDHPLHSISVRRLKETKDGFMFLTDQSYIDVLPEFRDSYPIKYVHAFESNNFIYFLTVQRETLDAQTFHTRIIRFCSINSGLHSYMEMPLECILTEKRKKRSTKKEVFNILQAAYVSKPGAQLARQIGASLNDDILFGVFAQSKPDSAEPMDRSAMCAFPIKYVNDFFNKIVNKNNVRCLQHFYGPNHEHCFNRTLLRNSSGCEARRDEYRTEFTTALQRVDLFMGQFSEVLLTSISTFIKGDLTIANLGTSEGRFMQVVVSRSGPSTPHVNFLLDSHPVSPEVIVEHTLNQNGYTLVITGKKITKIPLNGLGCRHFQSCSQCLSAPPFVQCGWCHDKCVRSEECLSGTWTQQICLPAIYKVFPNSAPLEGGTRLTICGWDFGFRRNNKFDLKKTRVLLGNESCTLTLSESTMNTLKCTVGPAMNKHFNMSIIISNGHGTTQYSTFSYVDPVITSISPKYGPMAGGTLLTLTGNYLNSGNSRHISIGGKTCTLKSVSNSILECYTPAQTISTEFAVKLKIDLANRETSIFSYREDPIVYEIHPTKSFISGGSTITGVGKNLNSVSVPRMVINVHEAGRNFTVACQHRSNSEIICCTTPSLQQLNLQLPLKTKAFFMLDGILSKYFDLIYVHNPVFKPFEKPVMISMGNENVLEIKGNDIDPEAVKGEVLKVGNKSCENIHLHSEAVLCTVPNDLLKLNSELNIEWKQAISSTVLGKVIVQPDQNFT

Kd (EGFR (Homo sapiens)): 87 nM
Kd (Met (Homo sapiens)): 2 nM
Substance: decorin (from UniProt P07585)
